These are literature values, as cited in publication PMC10018202.

One data set concerns the target Cys283 (UniProt position 283, GYILTCPSNLG).
For the next data set, the target named is Cys34 (UniProt position 58, QYLQQCPFEDH). The data set can be described thus: chemical modification (thiol-disulfide exchange with 2,2'-dithiodipyridine, per the title of the cited reference); the article calls it 'spectroscopic measurements'. The conditions noted are these: not stated (the article notes the pKa changes by 1.5 pH units depending on the ionic strength of the buffer).

Consider “Creatine kinase (the quoted measurement is most likely on human muscle-type CK; the article's docking target is brain-type CK) (Homo sapiens)”, for which the pKa result with Cys283 is “around 5.7 and ∼5.6”.

On to Serum albumin (HSA) (Homo sapiens), for which, in the data set with Cys34, the pKa entry is given as “around 7”.
